Assays:
[1] = Link_TGS6; cited from earlier work
B16F10 melanoma cells [2] = assay: B16F10 melanoma tumor growth inhibition study; type: in vivo; details: 20 mg/kg IV Q3D, 5 doses, B16F10 in C57BL/6 mice
Method: C57BL/6 mice were subcutaneously inoculated with B16F10 melanoma cells and when the average tumor volume reached on average 70-90 mm^3, animals were randomized into 6 groups based on tumor volumes (n=8 mice per treatment group). Mice were dosed intravenously every 3 days (Q3D) for a total of 5 doses according to Table 7.
Tumor volumes were measured twice a week for the duration of the study. […] On day 14, animals were sacrificed, and tissues and blood (processed to serum) were collected 24 hours post final dose (dose #5) and stored at −80° C. until further testing.

B16F10 melanoma cells [3] = assay: Tumor lysate levels of full-length fusion protein (ELISA), IL-2 and IFN-γ (Luminex), B16F10 study; type: in vivo, C57BL/6 mice; details: tumor lysate 24 hours after last dose
Method: An ELISA assay was developed to detect and quantify prodrug fusion proteins comprising IL-2 and IL-2Ra moieties. Wells of a 96-well plate were coated overnight with 100 μL of a rat anti-mouse IL-2 monoclonal antibody (JES6-1A12; ThermoFisher) at […] in PBS. After washing, wells are blocked with TBS/0.05% Tween 20/1% BSA, then fusion proteins and/or unknown biological samples were added for 1 hour at room temperature. After washing, an anti-mouse IL-2Ra biotin-labelled detection antibody (BAF2438, R&D systems) was added and binding was detected using Ultra Strepavidin HRP (ThermoFisher). The ELISA plate was developed by adding the chromogenic tetramethylbenzidine substrate (Ultra TMB, ThermoFisher). The reaction was stopped by addition of 0.5 M H2SO4, and the absorbance was read at 450-650 nm.
The levels of full-length IL-2-IL-2Ra fusion proteins, IL-2, and IFN-7 were quantified in tumor samples collected during a pre-clinical efficacy study comparing a panel of retention linker IL-2 fusion drugs (see Example 10).
Tumors (n=3 per group) were collected 24 hours after the last dose injection, flash frozen, and stored at −80° C. until further processing. Tumor lysates were generated using tissue extraction reagent (ThermoFisher) supplemented with protease and phosphatase inhibitors. Standard techniques and protein concentrations were determined using the BCA assay (Pierce). […]

Molecule	Note 2: pH dependence of binding to hyaluronic acid [1]	tumor growth inhibition (TGI) (B16F10 melanoma cells [2])	levels of IFN-7 in tumors (B16F10 melanoma cells [3])	IL-2 intratumoral levels (B16F10 melanoma cells [3]; compared to other arms)
641 (protein, Synthetic: hyaluronic acid; pH dependent (Link_TGS6)) GVYHREARSGKYKLTYAEAKAVCEFEGGHLATYKGLEAARKIGFHVCAAGWMAKGRVGYPIVKPGPPNCGFGKTGIIDYGIRLNRSERWDAYCYNPHA	binds better at lower pH			
Construct III: mIL2-VRIQRKKEKMKET-MMPcs1-GGSKLWVLPKGS-mIL2Ra-muIgG1Fc; hep/col IV (protein, Synthetic: Construct III, mIL2-…-MMPcs1-…-mIL2Ra-muIgG1Fc; hep/col IV) APTSSSTSSSTAEAQQQQQQQQQQQQHLEQLLMDLQELLSRMENYRNLKLPRMLTFKFYLPKQATELKDLQCLEDELGPLRHVLDLTQSKSFQLEDAENFISNIRVTVVKLKGSDNTFECQFDDESATVVDFLRRWIAFCQSIISTSPQVRIQRKKEKMKETGPLGVRGGGSKLWVLPKGSELCLYDPPEVPNATFKALSYKNGTILNCECKRGFRRLKELVYMRCLGNSWSSNCQCTSNSHDKSRKQVTAQLEHQKEQQTTTDMQKPTQSMHQENLTGHCREPPPWKHEDSKRIYHFVEGQSVHYECIPGYKALQRGPAISICKMKCGKTGWTQPQLTCVDEREHHRFLASEESQGSRNSSPESETSCPITTTDFPQPTETTAMTETFVLTMEYKGCKPCICTVPEVSSVFIFPPKPKDVLTITLTPKVTCVVVDISKDDPEVQFSWFVDDVEVHTAQTQPREEQFNSTFRSVSELPIMHQDWLNGKEFKCRVNSAAFPAPIEKTISKTKGRPKAPQVYTIPPPKEQMAKDKVSLTCMITDFFPEDITVEWQWNGQPAENYKNTQPIMDTDGSYFVYSKLNVQKSNWEAGNTFTCSVLHEGLHNHHTEKSLSHSPGK		83.5%	enhanced	highest
